{"source": "the DeepSol protein solubility set"}
{"assay": "soluble on expression in E. coli; label from the status in PepcDB or PDB records"}
{"sequence": "MVRSFIYEPFQIPSGSMMPTLLIGDFILVEKFAYGIKDPIYQKTLIETGHPKRGDIVVFKYPEDPKLDYIKRAVGLPGDKVTYDPVSKELTIQPGCSSGQACENALPVTYSNVEPSDFVQTFSRRNGGEATSGFFEVPKNETKENGIRLSERKETLGDVTHRILTVPIAQDQVGMYYQQPGQQLATWIVPPGQYFMMGDNRDNSADSRYWGFVPEANLVGRATAIWMSFDKQEGEWPTGLRLSRIGGIH", "soluble on expression in E. coli": "soluble"}
{"sequence": "MCEISVVMPVYNAEMHIKDAIESVLEQSFVDFEFILIDDGSTDHTSSIIQSYNDKRVRLIQNSHNFIESLNLGIENSLGKYMARMDGDDIMHIDRLKIQYAIMQEYPDVTVCGTWMNSIGTYSQTNGLLSTLSGWVEQPLLKFTKGNFLFHPTTMIRMDFLKKNALKYENYPYAEDFKFWVEIAKSGGRFYIDSQPLLYYRISDSQVSSQKSSEQRATTESIINEVLEYLMELNKNEYPELAAAYGDLCKLYEKQLLTKCEVLTLFQTLFSKNEKKLNLLEHHHHHH", "soluble on expression in E. coli": "soluble"}
{"sequence": "MSEKLVLSSGKCFLHEVLCRREEKEYRQNRANLRRGADTTTEVYAFPYVYPQLPQEATTQERLVLMRVAALAAEFGNIPAVGSDTPAKSLGRWAYEVSRQRMLDRQQQVAFNPKKLDVVGERLAYLHTQDFEEAVRAVSRLMSIASSLSNVPAFDYIALYSLFSYWGNGISEKSQRVRMRVLQDYYGSFGSLIE", "soluble on expression in E. coli": "not soluble"}
{"sequence": "MTGTLAPEAMPLLSVRKLTKLFGNFAACNGIDLDIAPGEIHALLGENGAGKSTLVKMLFGVLSPTEGDIIWQGQPVSVGSPSEARRLGIGMVFQHFSLFEALTVAENIALSLDPKISLKEIAREAEQLSRAYGLPLDPNAHVADLSVGERQRIEIVRALLQNPRLIILDEPTSVLTPQEADKLFETLAKLKAEGRSVLYISHRLEEVQRICDRATVLRHGKVTGACDPRKETPASLARMMVGSDVASVSRATGEALGAPQIEVMGLSVAPRTPFAVALKSISMNVRAGEVLAIAGVAGNGQGELFDALSGEYPVYNNDAIHLRGKPVGRLGINGRRLMGAGFVPEERHGHAAVPGMSLSDNLLLARSRSDRKAFLTGGFLRIVRGSTIKAAARRISETMDVRKSGADPLAGSLSGGNLQKFIVGRELDRQPSVLVVNQPTWGVDAGAASRIRQALVDLAKAGSAVIVISQDLDEIFEVATNIAVISDGMLSEAHPVEEMTLEKIGLLMGGIHTSQSGAAQHAHLEHHHHHH", "soluble on expression in E. coli": "not soluble"}
{"sequence": "MGSDKIHHHHHHMTHPDGLFYQLIQDLAQGKGLPHLIWRLSQILNRPVLLTNSVHRVLVFHDPHHLNLDLDEFLYVPPVKLDEADFLNRSEHSLHHGQLTLNGQVFPFVYLPLLAGDYCLGYIFVLETYPLADSLKPKSLSAEDKETIFEASMPLLLCLKNSSEVSLRQEQYRDDFIRDILYNNYDSKAAIHEKAKSWGWNLQGSLLALVIDLPDRDFKTAREILPRLFNHSSPISAYINLQLVIILNINGLKKVKLKTALNNFINSFLDRLADHGKDRSSIGIGIGSGVPSITDLYKSYQEAKVAWELGKVFDHKSVCYFEEMGFLKFIFTQPARELEEFSQRVLGPLLEYDQAENTGLLDSLRVFIEYKCQIAECSKALYVHENTLRNRIKKIEQVTGFDLRRVDHMVNVYIALQVLNLGKDD", "soluble on expression in E. coli": "not soluble"}
{"sequence": "MASQLLINDSKYGFLKELGLTENNAGVFHGKWAASGQVVQSFAPANNSPIANVQNGNVQDYEIAISEAKKAYNDWCEVPAPRRGEIVRQIGDKLRTQLQNLGKLVSLEMGKISAEGVGEVQEYVDICDYATGLSRSLEGKIFPSERPGHALLEQWNPLGVVGVISAFNFPCAVYGWNNALALVTGNSVVWKPAPSTPLTAIAVTKLVEEVLVANNVNPALCSLVCGEGDVGQALVKDKRVNLVSFTGSSEIGKIVGQQVQARFGKLLLELGGNNAIIVNEDADLNMVVPATVFAAVGTAGQRCTTTRRLIVHDKVYDQVLERLKKAYAQFESRIGCPLDSNTIIGPLHNQQAVGKYKASVAEAVASGGKIEYGGKVLERDGNFVLPTIVTGLKHDSPVVLRETFAPILYVLKFSTLEEAIAINNEVDQGLSSSLFTTNIQNVFKWMGPKGSDCGIVNVNIPTSGAEIGGAFGGEKETGGGRESGSDSWRQYMRRSTCTINYSKELPLAQGIKFE", "soluble on expression in E. coli": "not soluble"}
{"sequence": "SRFRFCGDLDCPDWVLAEISTLAKISSVKLRLLCSQVLKELLGQGIDYEKILKLTADAKFESGDVKATVAVLSFILSSAAKHSVDSDSLSSELQQLGLPKEHATSLCRCYEEKQSPLQEHLRACSLRVNRLASVGWRVDYTLSSSLLHSVEEPMVHLQLQVVPAPGTQAQPVSMSLSADKFQVLLAELKQAQTMMTALG", "soluble on expression in E. coli": "soluble"}
{"sequence": "MKFLNQHELTKLLALLDLDHGLDWDYFLLLIAKTGLRFGEALGVTPMDFDMAKLTLTINKTWDYKSATGSFAETKNTASVRKVPLDWQVAMQFAAQIKSLPQDKPIFVTDGQRVYNETANDILERKCKRASIPVISIHGLRHTHASLLLYAGVSVGSVARRLGHANMSTTQKTYLHILEHHHHHH", "soluble on expression in E. coli": "soluble"}
{"sequence": "MNPIVKAPTLNDLPAPPPGKTGWPWTEQNEALPEKMPDGSDWPKISIVTPSYNYGQFIEETIRSVLLQGYPNLEYIVVDGGSTDNTVTIIRKYEKYLKYWASEPDHGQTDAINKGYRYCSGDVFAWLNADDLYYDQSTLLKVINFYQKGYDLIVGECLNINADGTHFNQAITSTEKSDPTYFKKYLRYWSSGFLPQPAIFVKKEMADQCFPLSIELYYAMDFQFFLRVLNQEPKSVWIQEKLTRLRWHEDSKTMGTISRIDFHAIVPEPEVHKVALAEAENLPTWLEKIFFRIQAFDYLSLQPYINSLDNFHWLQITKTIVKRPTLAVWPLFWKIFFRSLLGEQIYKLLKRTIRTNLEHHHHHH", "soluble on expression in E. coli": "not soluble"}
{"sequence": "MKHTEESLMSTTEKSRKAEEDDEKDMKKRTQFPSSSTSSDPPVGIGGSGALVVNRRRQEGNPVLKYVRNVRYEWGDIGPDFECGPTFGVVYLSFKYHKQHPEYVYTRINGNAENRYRNKVLLGYCNMEEPRHVLRELNMICFREAWTFVVVYTVEEAAEYIELFKTTQKKEITIKKKAIDDGGDSSMSDERRRNREAAIGFLTAARSITKTDADRLLFHFGTLQAISTASETSISACPGVGPIKAKNLHSFLHAIISPNEQD", "soluble on expression in E. coli": "not soluble"}
{"sequence": "MGSDKIHHHHHHMQILKTSDVPTGIVLLDRRLDGGLPAGSFVCVYANPLAMPEAFLYQFATVLKTYYFTTSRPAKFVKQDMEKLRLDTSFVTFVDVYEQYYLNEYGQFIVEDRYRDKEIFDYVDDRLSRIAEEESGEYNVIIDSLSFFLNLNTDWGLKDWLINKLYTLAKEKGVVVYCHLIKNLHPVDVVNKVLDISDVVFDIEVERVGERLVSKFAVPKLRGKRPVTEYFRFYVEEGIQVDTSRDIA", "soluble on expression in E. coli": "not soluble"}
{"sequence": "MGSDKIHHHHHHADSPDAFVPPTRLTRIAFDRRSAAFGQLDFLLGEIGRRMQERMEVVRLTPQRALDIGCGHGQGLAGLRARFPDAQIAGLDISGVMLAEAGQRDPQRRPGWVGRLLGKRPLFDLVQGDLATLPFAPGSFDLLWSNLALHWHPEPHRVFPEWHRVTRDDGLVMFSLFGPDTLRELRTAFEEVDTATHTLRFVDMHDIGDMLVHGGWSTPVMDMETLTVTYESPEMLLREVQAFGGLRAHPALRRAGLHGRRWHQAVCAALERLRNADGVIPLTFEIVYGHAWKLPPRGAQQVDELGRAVVPLDKIGRARPRR", "soluble on expression in E. coli": "not soluble"}
{"sequence": "GHMENKVINFKKIIDSRGSLVAIEENKNIPFSIKRVYYIFDTKGEEPRGFHANKKLEQVLVCLNGSCRVILDDGNIIQEITLDSPAVGLYVGPAVWHEMHDFSSDCVMMVLASDYYDETDYIRQYDNFKKYIAKINLEKEG", "soluble on expression in E. coli": "soluble"}
{"sequence": "MFYTTDTNQHGLPHDPFKAIVAPRPIGWIGSKGREGVLNLSPYSFFNAISDRPKLVMFSSSGRKDSLRNVEETGVFTANLVSRHLVDRMNASSAPVAYDVDEFALAGLTAVDGRVVDAPFVREALAVLECRATQIQQLTDIEGKPTDSWMVIGQVMAIHIGETIIRDGRIDMGLARPVARMGYMDYCDGGSDVFQLQRPSAAPSV", "soluble on expression in E. coli": "soluble"}
{"sequence": "MPNNLELKQLIASAQVLGLQNDSSLPAFDRQILRMADEEKRALSPTEIQHICQTSKVDAQLIEQLQSQANHLVQQAREFLVKEQPHLVQSGGALFPSERAEACWRDCWQFFRVIVYAIACKRPLFTDAEGMGALRALYAHVGVPIEGLNIALKQLKVLSRQEISGAIEAPLLSESFGHLLEELNKTGVKS", "soluble on expression in E. coli": "not soluble"}
{"sequence": "MGSDKIHHHHHHMKTVIIVQARMTSTRLPGKVLKKVLDKPLLEYQIERLKRVKLADEIVIATTINSTDLPIIELCDRLSIPYFLGSEEDVLTRYYGAAKEHQADVVVRITSDCPLIDPLVINKVIQFFLDYRHECDYVSNSLERTYPRGMDTEVFSFLALHQAFVEAIAQPDREHVTPFIYMHPERYRLAQVVYSENQSSHRWTVDTADDFELIKRIIETLYPEIPKFTLEDCLDLFREYPDWSLINAHVEQKKYAA", "soluble on expression in E. coli": "not soluble"}
{"sequence": "MAHHHHHHMQMRRDALGNGKALEFAKELSLAYKQVIQATQHIGKQRQALTGCTDLSVKTREWAAAEHDIAGALEKYGAAPYWVEQRGWRPGRLQSFEAAHSRASSGTEVSYLCSRLRGYVKAAFTAHVTKPPKLNASEVDVAELLTFFTGSGDGALVVEVALAKFFVVENMHVRAPELWVMNYLLHCYGVEEGIMLAHEADVVDGGFKQQGGGAFEEQFLIQKNIWAVSQVLVPHCYAVTRCDEATAKAGVEACVRCEGTEGQGTEGAFPTWPGTPPASLPPAYRLARSVNDYGKEAGEDKTSRIIGELDGVIYDASARQVLLVLEAKQNIDVCKAFKQKERLYNALDATRKTLSQASQGAALTAVQLSAENETKTATTTAAGRNATPAAEAACAASTKLHTEPVVLRFFVTPTTAAEAARENFSVNGCSLVTGVGAEPAANFQDMRNSGDMASAAAPPVRSKAAAARLATAGNPFFTQDNFAAFFGATASAVQGDSTAPSPTPTRSDSMTPRHLGRDQRWIYLTSLSTGNSPGARTTVPAPGGTIHMVELTLVKTACNFVAEAYDSYFQISTLPPTATPALQSLVSAMRVCSAYAPETEPMALFHLFLELPPQECISARAETAAVSRSDPCEYVLHLFRHDVRCKDGAAALEQVWLRENFIDGLVLSEHSFI", "soluble on expression in E. coli": "not soluble"}
{"sequence": "GPGSMDDLVAVRIKDGIFAGNAGAAADKTLLIMNKITHIINCAGAEVADFFLGEPGFSYLSFPWKDAAGSVCTTILFDAGDDNIHRVVQFIDEALAAGECVLVHSVYGNSRSPALIAAYMIMKYGWKLESALLYLKMAHPDSDIKPHFQRQLRQFAKRHEVDHDIFAQDVDDSQFGLDNDQWMLRNTLLNGLLYKDQMANDLYRQCAEKVDVGNPVNGKAKKAHITFVDTKKGTDA", "soluble on expression in E. coli": "not soluble"}
{"sequence": "MDRLKAMQVFVEVADRGSLSAAAMHLGMSRAMVSRYLAELEAWVGVRLLHRTTRRLSLTPAGSETLPRCRRMLEMVGDMREAVAAPDAEPRGLLRVTAAMSFGGAQLAEAVAEFVRRHPAASIDLLLVDRAVNLVEERVDLAVRITNDLDPNLIGRRLADCRSVVCAAPQYLQQHGAPARAEDLSLHNCLTHSYFGRSLWRFERAGEPVEVPVGGNITANETDVLMRAALAGAGIVMLPTYLAAGQIAAGTLRPLLPDCAPPVLGIHGVYVSRKQMPLILRTMLDFLAERFNPAPWDAALEGR", "soluble on expression in E. coli": "not soluble"}
{"sequence": "SNAPLLLGKKAPNLYMTDTTGTYRYLYDVQAKYTILFFWDSQCGHCQQETPKLYDWWLKNRAKGIQVYAANIERKDEEWLKFIRSKKIGGWLNVRDSKNHTDFKITYDIYATPVLYVLDKNKVIIAKRIGYENLDDFLVQYEKSLKTK", "soluble on expression in E. coli": "soluble"}
{"sequence": "HVYAFDIQESAVANTKERLGDMYQARTTLFHKSHDKIAESLPPETHGKVAAAVFNLGYLPGGDKSITTNGSSTIKAIEQLLSIMKDEGLIVLVVYHGHPEGKAEKNDVLEFCRDLDQQTARVLTYGFINQQNDPPFIVAIEKKAQISK", "soluble on expression in E. coli": "not soluble"}
